This is an account of results in article PMC12693692, “Benzodioxane-benzamides targeting bacterial cell division protein FtsZ potentially disrupt SlmA-mediated nucleoid occlusion and reversible biomolecular condensation” (International journal of biological macromolecules, 2025).

The labels stand for the following.
B2: FtsZ (E. coli cell division protein, tubulin-like GTPase) (natural protein, UniProt P0A9A6 1-383, looked up)
chain: MFEPMELTNDAVIKVIGVGGGGGNAVEHMVRERIEGVEFFAVNTDAQALRKTAVGQTIQIGSGITKGLGAGANPEVGRNAADEDRDALRAALEGADMVFIAAGMGGGTGTGAAPVVAEVAKDLGILTVAVVTKPFNFEGKKRMAFAEQGITELSKHVDSLITIPNDKLLKVLGRGISLLDAFGAANDVLKGAVQGIAELITRPGLMNVDFADVRTVMSEMGYAMMGSGVASGEDRAEEAAEMAISSPLLEDIDLSGARGVLVNITAGFDLRLDEFETVGNTIRAFASDNATVVIGTSLDPDMNDELRVTVVATGIGMDKRPEITLVTNKQVQQPVMDRYQQHGMAPLTQEQKPVAKVVNDNAPQTAKEPDYLDIPAFLRKQAD
modifications: tracer fraction only (10-50 nM in 10 uM unlabeled FtsZ): Alexa Fluor 488 succinimidyl ester at the amino groups, 0.4-0.5 mol of dye per mole of protein
notes: FtsZ, E. coli; it is kept as the same molecule; Polymers were triggered with GTP; also called FtsZ-GTP; FtsZ polymers

Series [1] addresses B2. Nature of the series: fluorescence polarisation; fluorescence anisotropy binding titration in solution: SlmA (1 uM) and SBS-Fl (10 nM) with increasing concentrations of FtsZ, right after 2 mM GTP; with or without 20 uM FZ95 or FZ100; 25 C; 50 mM Tris-HCl pH 7.5, 300 mM KCl, 5 mM MgCl2; 1:1 model, apparent parameters. The conditions noted are these: both partners purified.
Series [2] concerns the molecule itself. Kind of series: fluorescence correlation spectroscopy; FtsZ 10 uM (10 nM FtsZ-Alexa 488 as tracer), with 2 mM GTP and regeneration system against no GTP; dilute solution buffer; self-association into polymers.

B1: SlmA (E. coli nucleoid occlusion protein), bound to its DNA site SBS (natural protein, UniProt P0C093 1-198, looked up)
chain: MAEKQTAKRNRREEILQSLALMLESSDGSQRITTAKLAASVGVSEAALYRHFPSKTRMFDSLIEFIEDSLITRINLILKDEKDTTARLRLIVLLLLGFGERNPGLTRILTGHALMFEQDRLQGRINQLFERIEAQLRQVLREKRMREGEGYTTDETLLASQILAFCEGMLSRFVRSEFKYRPTDDFDARWPLIAAQLQ
notes: SlmA, E. coli; the DNA is not a chain; also called SlmA-SBS; SlmA nucleoprotein complexes
As to B1, in series [1], the binding result is given as “binds”.
B2: the binding result in series [2] is reported as “binds”.
